Reference: patent US12269859B2, “Synthetic immune receptors and methods of use thereof” (Angeles Therapeutics, Inc., priority 2016, dated 2025)

B1: 012517-E12 (protein)
chain: MALPVTALLLPLALLLHAARPLEGKPIPNPLLGLDSTGSGEDLKNVFPPEVAVFEPSKAEIAHTQKATLVCLATGFYPDHVELSWWVNGKEVHSGVCTDPQPLKEQPALNDSRYCLSSRLRVSATFWQNPRNHFRCQVQFYGLSENDEWTQDRAKPVTQIVSAEAWGRADCGITSASYHQGVLSATILYEILLGKATLYAVLVSALVLMAMVKRKDSRGRAKRSGSGATNFSLLKQAGDVEENPGPTSMALPVTALLLPLALLLHAARPDIQMTQTTSSLSASLGDRVTISCRASQDISNYLNWYQQKPDGTVKLLIYYTSILHSGVPSRFSGSGSGTDYSLTISNLEQEDFATYFCQQGNTLPWTFGGGTKLEIKAGGGGSGGGGSGGGGSEVQLVESGGGLVKPGGSLKLSCAASGFAFSIYDMSWVRQTPEKRLEWVAYISSGGGTYYPDTVKGRFTISRDNAKNTLYLQMSSLKSEDTAMYYCARHSGYGTHWGVLFAYWGQGTLVTVSATREQKLISEEDGSGIQNPDPAVYQLRDSKSSDKSVCLFTDFDSQTNVSQSKDSDVYITDKCVLDMRSMDFKSNSAVAWSNKSDFACANAFNNSIIPEDTFFPSSDVPCDVKLVEKSFETDTNLNFQNLSVIGFRILLLKVAGFNLLMTLRLWSSRAKRSGSGVKQTLNFDLLKLAGDVESNPGPSRGHMTEYKPTVRLATRDDVPRAVRTLAAAFADYPATRHTVDPDRHIERVTELQELFLTRVGLDIGKVWVADDGAAVAVWTTPESVEAGAVFAEIGPRMAELSGSRLAAQQQMEGLLAPHRPKEPAWFLATVGVSPDHQGKGLGSAVVLPGVEAAERAGVPAFLETSAPRNLPFYERLGFTVTADVEVPEGPRTWCMTRKPGA
B2: 040417-R02 (protein)
chain: MALPVTALLLPLALLLHAARPEVQLVESGGGLVQPGRSLRLSCAASGFTFDDYAMHWVRQAPGKGLEWVSGISWNSGSIGYADSVKGRFTISRDNAKNSLYLQMNSLRAEDTALYYCAKDKGGGYYDFWSGSDYWGQGTLVTVSSLEDLKNVFPPEVAVFEPSKAEIAHTQKATLVCLATGFYPDHVELSWWVNGKEVHSGVCTDPQPLKEQPALNDSRYCLSSRLRVSATFWQNPRNHFRCQVQFYGLSENDEWTQDRAKPVTQIVSAEAWGRADCGITSASYHQGVLSATILYEILLGKATLYAVLVSALVLMAMVKRKDSRGRAKRSGSGATNFSLLKQAGDVEENPGPTSMDWIWRILFLVGAATGAHSFESSELTQDPAVSVALGQTVRITCQGDSLRSYYASWYQQKPGQAPVLVIYGKNNRPSGIPDRFSGSSSGNTASLTITGAQAEDEADYYCNSRDSSGWVFGGGTKLTVLTRIQNPDPAVYQLRDSKSSDKSVCLFTDFDSQTNVSQSKDSDVYITDKCVLDMRSMDFKSNSAVAWSNKSDFACANAFNNSIIPEDTFFPSSDVPCDVKLVEKSFETDTNLNFQNLSVIGFRILLLKVAGFNLLMTLRLWSSRAKRSGSGVKQTLNFDLLKLAGDVESNPGPSRGHMTEYKPTVRLATRDDVPRAVRTLAAAFADYPATRHTVDPDRHIERVTELQELFLTRVGLDIGKVWVADDGAAVAVWTTPESVEAGAVFAEIGPRMAELSGSRLAAQQQMEGLLAPHRPKEPAWFLATVGVSPDHQGKGLGSAVVLPGVEAAERAGVPAFLETSAPRNLPFYERLGFTVTADVEVPEGPRTWCMTRKPGA
B3: 040417-W08 (protein)
chain: MALPVTALLLPLALLLHAARPQVQLVQSGAEVKKPGASVKVSCKASGYTFTSYDINWVRQATGQGLEWMGWMNPNSGNTGYAQKFQGRVTMTRNTSISTAYMELSSLRSEDTAVYYCARGDSTKVEIKLEIQNPDPAVYQLRDSKSSDKSVCLFTDFDSQTNVSQSKDSDVYITDKCVLDMRSMDFKSNSAVAWSNKSDFACANAFNNSIIPEDTFFPSSDVPCDVKLVEKSFETDTNLNFQNLSVIGFRILLLKVAGFNLLMTLRLWSSRAKRSGSGVKQTLNFDLLKLAGDVESNPGPTSMDWIWRILFLVGAATGAHSFEQSVLTQPRSVSGSPGQSVTISCTGTSSDVGGYNYVSWYQQHPGEAPKLIIYDADKRPSGISNRFSSGKSGNTASLTISGLQVEDEADYYCCSYAGGSTWVFGGGTKVTVLTREDLKNVFPPEVAVFEPSKAEIAHTQKATLVCLATGFYPDHVELSWWVNGKEVHSGVCTDPQPLKEQPALNDSRYCLSSRLRVSATFWQNPRNHFRCQVQFYGLSENDEWTQDRAKPVTQIVSAEAWGRADCGITSASYHQGVLSATILYEILLGKATLYAVLVSALVLMAMVKRKDSRGRAKRSGSGATNFSLLKQAGDVEENPGPSRGHMTEYKPTVRLATRDDVPRAVRTLAAAFADYPATRHTVDPDRHIERVTELQELFLTRVGLDIGKVWVADDGAAVAVWTTPESVEAGAVFAEIGPRMAELSGSRLAAQQQMEGLLAPHRPKEPAWFLATVGVSPDHQGKGLGSAVVLPGVEAAERAGVPAFLETSAPRNLPFYERLGFTVTADVEVPEGPRTWCMTRKPGA
B4: 040417-V03 (protein)
chain: MALPVTALLLPLALLLHAARPEVQLVESGGGLVQPGRSLRLSCAASGFTFDDYAMHWVRQAPGKGLEWVSGISWNSGSIGYADSVKGRFTISRDNAKNSLYLQMNSLRAEDTALYYCAKDKGGGYYDFWSGSDYWGQGTLVTVSSLEIQNPDPAVYQLRDSKSSDKSVCLFTDFDSQTNVSQSKDSDVYITDKCVLDMRSMDFKSNSAVAWSNKSDFACANAFNNSIIPEDTFFPSSDVPCDVKLVEKSFETDTNLNFQNLSVIGFRILLLKVAGFNLLMTLRLWSSRAKRSGSGVKQTLNFDLLKLAGDVESNPGPTSMDWIWRILFLVGAATGAHSFESSELTQDPAVSVALGQTVRITCQGDSLRSYYASWYQQKPGQAPVLVIYGKNNRPSGIPDRFSGSSSGNTASLTITGAQAEDEADYYCNSRDSSGWVFGGGTKLTVLTREDLKNVFPPEVAVFEPSKAEIAHTQKATLVCLATGFYPDHVELSWWVNGKEVHSGVCTDPQPLKEQPALNDSRYCLSSRLRVSATFWQNPRNHFRCQVQFYGLSENDEWTQDRAKPVTQIVSAEAWGRADCGITSASYHQGVLSATILYEILLGKATLYAVLVSALVLMAMVKRKDSRGRAKRSGSGATNFSLLKQAGDVEENPGPSRGHMTEYKPTVRLATRDDVPRAVRTLAAAFADYPATRHTVDPDRHIERVTELQELFLTRVGLDIGKVWVADDGAAVAVWTTPESVEAGAVFAEIGPRMAELSGSRLAAQQQMEGLLAPHRPKEPAWFLATVGVSPDHQGKGLGSAVVLPGVEAAERAGVPAFLETSAPRNLPFYERLGFTVTADVEVPEGPRTWCMTRKPGA
B5: 041117-S01 (protein)
chain: MALPVTALLLPLALLLHAARPEVQLQQSGPGLVKPSQTLSLTCAISGDSVLSNSDTWNWIRQSPSRGLEWLGRTYHRSTWYDDYASSVRGRVSINVDTSKNQYSLQLNAVTPEDTGVYYCARDRLQDGNSWSDAFDVWGQGTMVTVSSLEDLKNVFPPEVAVFEPSKAEIAHTQKATLVCLATGFYPDHVELSWWVNGKEVHSGVCTDPQPLKEQPALNDSRYCLSSRLRVSATFWQNPRNHFRCQVQFYGLSENDEWTQDRAKPVTQIVSAEAWGRADCGITSASYHQGVLSATILYEILLGKATLYAVLVSALVLMAMVKRKDSRGRAKRSGSGATNFSLLKQAGDVEENPGPTSMDWIWRILFLVGAATGAHSFEQSALTQPASVSGSPGQSITISCTGTSSDVGGYNYVSWYQQHPGKAPKLMIYDVSNRPSGVSNRFSGSKSGNTASLTISGLQAEDEADYYCSSYTSSSTLVYVFGTGTKVTVLTRIQNPDPAVYQLRDSKSSDKSVCLFTDFDSQTNVSQSKDSDVYITDKCVLDMRSMDFKSNSAVAWSNKSDFACANAFNNSIIPEDTFFPSSDVPCDVKLVEKSFETDTNLNFQNLSVIGFRILLLKVAGFNLLMTLRLWSSRAKRSGSGVKQTLNFDLLKLAGDVESNPGPSRGHMTEYKPTVRLATRDDVPRAVRTLAAAFADYPATRHTVDPDRHIERVTELQELFLTRVGLDIGKVWVADDGAAVAVWTTPESVEAGAVFAEIGPRMAELSGSRLAAQQQMEGLLAPHRPKEPAWFLATVGVSPDHQGKGLGSAVVLPGVEAAERAGVPAFLETSAPRNLPFYERLGFTVTADVEVPEGPRTWCMTRKPGA
B6: 041917-L04 (protein)
chain: MALPVTALLLPLALLLHAARPLEGKPIPNPLLGLDSTGSGEDLKNVFPPEVAVFEPSKAEIAHTQKATLVCLATGFYPDHVELSWWVNGKEVHSGVCTDPQPLKEQPALNDSRYCLSSRLRVSATFWQNPRNHFRCQVQFYGLSENDEWTQDRAKPVTQIVSAEAWGRADCGITSASYHQGVLSATILYEILLGKATLYAVLVSALVLMAMVKRKDSRGRAKRSGSGATNFSLLKQAGDVEENPGPTSMALPVTALLLPLALLLHAARPQVQLVQSGAEVKKPGASVKVSCKASGYTFTSYDINWVRQATGQGLEWMGWMNPNSGNTGYAQKFQGRVTMTRNTSISTAYMELSSLRSEDTAVYYCARGDSTKVEIKGGGGSGGGGSGGGGSQSVLTQPRSVSGSPGQSVTISCTGTSSDVGGYNYVSWYQQHPGEAPKLIIYDADKRPSGISNRFSSGKSGNTASLTISGLQVEDEADYYCCSYAGGSTWVFGGGTKVTVLTREQKLISEEDGSGIQNPDPAVYQLRDSKSSDKSVCLFTDFDSQTNVSQSKDSDVYITDKCVLDMRSMDFKSNSAVAWSNKSDFACANAFNNSIIPEDTFFPSSDVPCDVKLVEKSFETDTNLNFQNLSVIGFRILLLKVAGFNLLMTLRLWSSRAKRSGSGVKQTLNFDLLKLAGDVESNPGPSRGHMTEYKPTVRLATRDDVPRAVRTLAAAFADYPATRHTVDPDRHIERVTELQELFLTRVGLDIGKVWVADDGAAVAVWTTPESVEAGAVFAEIGPRMAELSGSRLAAQQQMEGLLAPHRPKEPAWFLATVGVSPDHQGKGLGSAVVLPGVEAAERAGVPAFLETSAPRNLPFYERLGFTVTADVEVPEGPRTWCMTRKPGA

Test system: target antigen-expressing cell line
Assay: Jurkat NFAT-GFP assay, coculture with target cell lines expressing the respective target antigen (summary Table 10A)
Assay type: cell-based, human
Parameters: key: The signs +/−, +, 2+ etc. after the name of the cell lines indicate the relative degree of positivity on the Jurkat-NFAT-GFP assay as measured by the % GFP positive cells; +: relative degree of positivity on the Jurkat-NFAT-GFP assay as measured by the % GFP positive cells; 2+: relative degree of positivity on the Jurkat-NFAT-GFP assay as measured by the % GFP positive cells
Conditions: relative % GFP positive cells; for NFAT-GFP ASSAY Positive Cell lines: NALM6: SIR-expressing Jurkat-NFAT-GFP cells cocultured with NALM6; for NFAT-GFP ASSAY Positive Cell lines: RAJI: SIR-expressing Jurkat-NFAT-GFP cells cocultured with RAJI
Method in brief: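 Stable SIR expression in Jurkat-NFAT-GFP cells by lentiviral transfer and puromycin selection; coculture with target cells (E:T approximately 1:2) for 4 to 18 hours; flow cytometric measurement of NFAT-driven GFP; scoring as positive when % GFP-positive cells exceeds that of parental reporter cells.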

Molecule	NFAT-GFP ASSAY Positive Cell lines: NALM6	NFAT-GFP ASSAY Positive Cell lines: RAJI
B1	(+/−)	RAJI (+), NALM6
B2	(+)	
B3		RAJI (2+)
B4		RAJI (+/−)
B5		RAJI (+/−)
B6		RAJI (+/−)
